The target of the data set is GST-FoxO1 DBD (Homo sapiens, UniProt Q12778 151-266). The data set is described as follows: EMSA; 1 µM protein, 1 nM DNA, 1 ng/mL poly dI-dC; 20 mM Tris pH 8.0, 50 mM KCl, 5% glycerol, 2 mM DTT, 0.2 mM EDTA, 2 mM MgCl2, 0.1 mg/mL BSA, 1 ng/mL poly dI-dC; RT 30 min; 6% gel in 0.5X TBE at 4 °C. The following applies: protein: recombinant; tags: GST (pDEST15, N-terminal); blunt.
Sequence of GST-FoxO1 DBD (Q12778 151-266): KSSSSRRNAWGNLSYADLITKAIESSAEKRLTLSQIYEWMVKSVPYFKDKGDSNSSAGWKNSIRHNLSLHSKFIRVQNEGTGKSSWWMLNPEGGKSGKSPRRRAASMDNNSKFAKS

B1: FoxO DBE duplex (dsDNA)
DNA 1: CAAAATGTAAACAAGA
DNA 2: TCTTGTTTACATTTTG
As to B1, the binding result is “binds”.

The values are drawn from publication PMC6297234, “aPKC controls endothelial growth by modulating c-Myc via FoxO1 DNA-binding ability”.
